The text below walks through data of PMC10425845 (The EMBO Journal, 2023).

Where two headings read alike, the source gives them in different places.

The chains are these.
T1: Strep-REC114 1-159 (PH domain) (mouse, UniProt Q9CWH4 1-159)
T1 sequence (looked up): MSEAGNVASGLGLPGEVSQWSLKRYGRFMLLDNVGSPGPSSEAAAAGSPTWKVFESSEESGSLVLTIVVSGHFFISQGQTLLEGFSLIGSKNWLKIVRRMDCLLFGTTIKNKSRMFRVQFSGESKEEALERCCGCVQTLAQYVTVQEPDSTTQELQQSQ

T2: MEI4 1-43 (untagged) (mouse, UniProt Q8BRM6 1-43)
T2 chain (looked up): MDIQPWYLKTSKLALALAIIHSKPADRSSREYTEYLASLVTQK

T3: His-MEI4 1-127 (mouse, UniProt Q8BRM6 1-127)
T3 sequence (looked up): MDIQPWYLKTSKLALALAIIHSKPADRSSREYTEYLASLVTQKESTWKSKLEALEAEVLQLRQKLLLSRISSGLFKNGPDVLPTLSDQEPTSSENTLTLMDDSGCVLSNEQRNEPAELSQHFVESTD

T4: His-MBP-IHO1 1-281 (mouse, UniProt Q6PDM4 1-281)
T4 sequence (looked up): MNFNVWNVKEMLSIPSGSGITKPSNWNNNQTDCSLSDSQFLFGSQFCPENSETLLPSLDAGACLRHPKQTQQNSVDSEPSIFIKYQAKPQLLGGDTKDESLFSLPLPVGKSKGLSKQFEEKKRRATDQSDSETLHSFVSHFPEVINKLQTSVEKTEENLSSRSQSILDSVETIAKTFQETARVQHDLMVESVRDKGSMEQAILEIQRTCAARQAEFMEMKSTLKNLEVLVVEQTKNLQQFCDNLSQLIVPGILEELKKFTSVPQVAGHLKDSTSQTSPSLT

T5: His-Sumo-IHO1 1-281 (mouse, UniProt Q6PDM4 1-281)
T5 sequence (looked up): T4 sequence (looked up)

B1: IHO1 1-281 (domain or fragment, mouse, UniProt Q6PDM4 1-281, looked up)
chain: T4 sequence (looked up)
B2: IHO1 125-281 (domain or fragment, mouse, UniProt Q6PDM4 125-281, looked up)
chain: ATDQSDSETLHSFVSHFPEVINKLQTSVEKTEENLSSRSQSILDSVETIAKTFQETARVQHDLMVESVRDKGSMEQAILEIQRTCAARQAEFMEMKSTLKNLEVLVVEQTKNLQQFCDNLSQLIVPGILEELKKFTSVPQVAGHLKDSTSQTSPSLT
B3: TOPOVIBL 452-579 (domain or fragment, mouse, UniProt J3QMY9 452-579, looked up)
chain: SCDTEQHLTPEKNISAQNTKDQHKNIAQEFPEESIGQAENKRPKRGSPNHGREESRVLGSARDRSPPKSATRDRELTEVSLTARGSQTQAAHGRAQAAEAASPAGGLEDLWLQEVSNLSEWLNPGHRS
B4: IHO1 125-261 (domain or fragment, mouse, UniProt Q6PDM4 125-261, looked up)
chain: ATDQSDSETLHSFVSHFPEVINKLQTSVEKTEENLSSRSQSILDSVETIAKTFQETARVQHDLMVESVRDKGSMEQAILEIQRTCAARQAEFMEMKSTLKNLEVLVVEQTKNLQQFCDNLSQLIVPGILEELKKFTS
B5: MBP-IHO1 125-261 (MBP joined by a five-residue linker) (domain or fragment, mouse, UniProt Q6PDM4 125-261, looked up)
chain: B4 chain
B6: Strep-REC114 (full-length mouse REC114 with a single N-terminal Strep-tag) (natural protein, UniProt Q9CWH4 1-259, looked up)
chain: MSEAGNVASGLGLPGEVSQWSLKRYGRFMLLDNVGSPGPSSEAAAAGSPTWKVFESSEESGSLVLTIVVSGHFFISQGQTLLEGFSLIGSKNWLKIVRRMDCLLFGTTIKNKSRMFRVQFSGESKEEALERCCGCVQTLAQYVTVQEPDSTTQELQQSQGPREAGESQGKDPLQQGPSLTLEQHVCMAAGAGVLQERTSVTHRAQSILAPEKLTLAYEGSSWGTEELGPFLRLCLMDQNFPAFVEEVEKELKKITGLRN

Data set [1] concerns the target Strep-REC114-His-MEI4 1-127 complex (mouse) (UniProt Q9CWH4). Put plainly: SEC-MALS.
The target is the same in data set [2]. Description: native MS.
In data set [3] the target is REC114 226-254-MEI4 1-43 minimal complex (mouse) (UniProt Q9CWH4). Description: AUC.
Data set [4] shares this target. Put plainly: AUC. The source holds these as a separate data set.
Data set [5] concerns the molecule itself. Description: SEC-MALS.
The target in data set [6] is Strep-REC114-His-MEI4 1-127 complex (mouse) (UniProt Q9CWH4). Description: ITC.
Data set [7] addresses T1, Strep-REC114 1-159 (PH domain). Put plainly: ITC.
For data set [8], the target named is B6. Description: pull-down.
Data set [9] concerns the molecule itself. Put plainly: SEC-MALS. This is another data set of the same source.
The next data set deals with T2, MEI4 1-43 (untagged). Put plainly: AUC.
Data set [10] concerns the target B6. Description: SEC.
Data set [11] addresses T3, His-MEI4 1-127. Put plainly: SEC-MALS.
Data set [12] concerns the molecule itself. Description: SEC-MALS. This is another data set of the same source.
Data set [13] addresses T3, His-MEI4 1-127. Description: native MS.
In the next data set the target is T4, His-MBP-IHO1 1-281. Put plainly: SEC.
A further data set has as its target T5, His-Sumo-IHO1 1-281. Put plainly: SEC.

For the molecule “Strep-REC114-His-MEI4 1-127 complex (from UniProt Q9CWH4 1-259; Q8BRM6 1-127)”, the stoichiometry N in data set [1] and in [2] was 2 in each case. As to “REC114 226-254-MEI4 1-43 minimal complex (from UniProt Q9CWH4 226-254; Q8BRM6 1-43)”, the stoichiometry N in data set [3] and in [4] was 2 throughout.

For ELGPFLRLCLMDQNFPAFVEEVEKELKKI (domain or fragment, mouse, UniProt Q9CWH4 226-254, looked up) [His-MBP-REC114 226-254], in “SEC-MALS [5]”, the “stoichiometry N” value amounted to 2. As for MNFNVWNVKEMLSIPSGSGITKP (domain or fragment, mouse, UniProt Q6PDM4 1-23, looked up) [His-MBP-IHO1 1-23], the Kd in data set [6] was 31.9 µM; in data set [7], 30.4 µM. Turning to MDIQPWYLKTSKLALALAIIHSKPADRSSREYTEYLASLVTQK (domain or fragment, mouse, UniProt Q8BRM6 1-43, looked up) [His-MBP-MEI4 1-43], in data set [8], the binding result was “binds”. With B1, in the data set “SEC-MALS [9]”, the “stoichiometry N” value was found to be 4. In data set [6], this molecule showed a Kd of 26.9 µM. WGTEEDGPFLRLCLMDQNFPAFVEEVEKELKKITG (domain or fragment, mouse, UniProt Q9CWH4 222-256, looked up) [His-MBP-REC114 222-256 L227D]: the binding result in the data set “SEC-MALS [5]” is on record as “binds”.

GSMEQAILEIQRTCAARQAEFMEMKSTLKNLEVLVVEQTKNLQQFCDNLS (domain or fragment, mouse, UniProt Q6PDM4 196-245, looked up) [IHO1 196-245]: the “stoichiometry N” value in “SEC-MALS [9]” was 4. On to B2, for which the “stoichiometry N” value in “SEC-MALS [9]” came out at 4.

For the molecule ELGPFLRLCLMDQNFPAFVEEVEKELKKI (domain or fragment, mouse, UniProt Q9CWH4 226-254, looked up) [REC114 226-254 (untagged)], the “stoichiometry N” value with MEI4 1-43 (untagged) came out at 2.

Take B3: the binding result in data set [10] is on record as “binds”.

On to B4, for which the “stoichiometry N” value in “SEC-MALS [9]” came to 4. With B5, the “stoichiometry N” value in the data set “SEC-MALS [9]” amounted to 4.

For the molecule B6, the figures for the “stoichiometry N” value with His-MEI4 1-127 [11] and in the data set with His-MEI4 1-127 [13] were 2 and 1, respectively. In addition, the binding result in “SEC-MALS [12]”, with His-MBP-IHO1 1-281 and with His-Sumo-IHO1 1-281 was “binds” throughout.
